# From patent US20160102129A1 (Novo Nordisk, published 2016)
# *1 amine or outer side, *2 acyl side, *3 side chain or, on linkers, in order; H or OH if unused. Where no end group is shown, it is not given here. Side-chain parts run from the residue outwards. [ ]: non-standard residue; d: D form. The star is where a group is joined. C18 diacid = O=C(O)CCCCCCCCCCCCCCCCC(=O)*; γGlu = O=C(O)[C@H](CCC(=O)[*:2])N[*:1]; Desaminohistidyl = O=C(CCc1c[nH]cn1)*; Ac4c = NC1(C(=O)O)CCC1; AEEA = NCCOCCOCC(=O)O; Aib = CC(C)(N)C(=O)O
# B1: N^ε34-[2-[[(2S)-2-[[(2S)-4-carboxy-2-[[2-[[(2S)-2-[[(4S)-4-carboxy-4-[[(4S)-4-carboxy-4-(17-carboxyheptadecanoylamino)butanoyl]amino]butanoyl]amino]-3-hydroxypr … (peptide)
# peptide: [Desaminohistidyl][Aib]HGTFTSDVSKYLEEQAAREFIAWLLK([Gly-Ser-Glu-Gly-Ser-γGlu-γGlu-C18 diacid])T
# notes: Named as peptide, not peptide amide (C-terminal acid)
# B2: N^ε22-[(4S)-4-carboxy-4-[[(4S)-4-carboxy-4-[[2-[2-[2-[[2-[2-[2-[[(4S)-4-carboxy-4-(17-carboxyheptadecanoylamino)butanoyl]amino]ethoxy]ethoxy]acetyl]amino]ethoxy … (peptide)
# peptide: [Desaminohistidyl][Ac4c]HGTFTSDVSKYLEK([γGlu-γGlu-AEEA-AEEA-γGlu-C18 diacid])RAAREFIAWLLKT-NH2
# SMILES: CC[C@H](C)[C@H](NC(=O)[C@H](Cc1ccccc1)NC(=O)[C@H](CCC(=O)O)NC(=O)[C@H](CCCNC(=N)N)NC(=O)[C@H](C)NC(=O)[C@H](C)NC(=O)[C@H](CCCNC(=N)N)NC(=O)[C@H](CCCCNC(=O)CC[C@H](NC(=O)CC[C@H](NC(=O)COCCOCCNC(=O)COCCOCCNC(=O)CC[C@H](NC(=O)CCCCCCCCCCCCCCCCC(=O)O)C(=O)O)C(=O)O)C(=O)O)NC(=O)[C@H](CCC(=O)O)NC(=O)[C@H](CC(C)C)NC(=O)[C@H](Cc1ccc(O)cc1)NC(=O)[C@H](CCCCN)NC(=O)[C@H](CO)NC(=O)[C@@H](NC(=O)[C@H](CC(=O)O)NC(=O)[C@H](CO)NC(=O)[C@@H](NC(=O)[C@H](Cc1ccccc1)NC(=O)[C@@H](NC(=O)CNC(=O)[C@H](Cc1c[nH]cn1)NC(=O)C1(NC(=O)CCc2c[nH]cn2)CCC1)[C@@H](C)O)[C@@H](C)O)C(C)C)C(=O)N[C@@H](C)C(=O)N[C@@H](Cc1c[nH]c2ccccc12)C(=O)N[C@@H](CC(C)C)C(=O)N[C@@H](CC(C)C)C(=O)N[C@@H](CCCCN)C(=O)N[C@H](C(N)=O)[C@@H](C)O
# B3: N^ε23-[2-[2-[2-[[2-[2-[2-[[(4S)-4-carboxy-4-(17-carboxyheptadecanoylamino)butanoyl]amino]ethoxy]ethoxy]acetyl]amino]ethoxy]ethoxy]acetyl]-[Imp7,Aib8,His9,Lys18, … (peptide)
# peptide: [Desaminohistidyl][Aib]HGTFTSDVSKYLEGK([AEEA-AEEA-γGlu-C18 diacid])AAREFIAWLLKT-NH2
# SMILES: CC[C@H](C)[C@H](NC(=O)[C@H](Cc1ccccc1)NC(=O)[C@H](CCC(=O)O)NC(=O)[C@H](CCCNC(=N)N)NC(=O)[C@H](C)NC(=O)[C@H](C)NC(=O)[C@H](CCCCNC(=O)COCCOCCNC(=O)COCCOCCNC(=O)CC[C@H](NC(=O)CCCCCCCCCCCCCCCCC(=O)O)C(=O)O)NC(=O)CNC(=O)[C@H](CCC(=O)O)NC(=O)[C@H](CC(C)C)NC(=O)[C@H](Cc1ccc(O)cc1)NC(=O)[C@H](CCCCN)NC(=O)[C@H](CO)NC(=O)[C@@H](NC(=O)[C@H](CC(=O)O)NC(=O)[C@H](CO)NC(=O)[C@@H](NC(=O)[C@H](Cc1ccccc1)NC(=O)[C@@H](NC(=O)CNC(=O)[C@H](Cc1c[nH]cn1)NC(=O)C(C)(C)NC(=O)CCc1c[nH]cn1)[C@@H](C)O)[C@@H](C)O)C(C)C)C(=O)N[C@@H](C)C(=O)N[C@@H](Cc1c[nH]c2ccccc12)C(=O)N[C@@H](CC(C)C)C(=O)N[C@@H](CC(C)C)C(=O)N[C@@H](CCCCN)C(=O)N[C@H](C(N)=O)[C@@H](C)O
# B4: N^ε22-[(4S)-4-carboxy-4-[[(4S)-4-carboxy-4-[[2-[2-[2-[[2-[2-[2-[[(4S)-4-carboxy-4-(17-carboxyheptadecanoylamino)butanoyl]amino]ethoxy]ethoxy]acetyl]amino]ethoxy … (peptide)
# peptide: [Desaminohistidyl][Ac4c]HGTFTSDVSKYLEK([γGlu-γGlu-AEEA-AEEA-γGlu-C18 diacid])QAAREFIAWLLKT-NH2
# SMILES: CC[C@H](C)[C@H](NC(=O)[C@H](Cc1ccccc1)NC(=O)[C@H](CCC(=O)O)NC(=O)[C@H](CCCNC(=N)N)NC(=O)[C@H](C)NC(=O)[C@H](C)NC(=O)[C@H](CCC(N)=O)NC(=O)[C@H](CCCCNC(=O)CC[C@H](NC(=O)CC[C@H](NC(=O)COCCOCCNC(=O)COCCOCCNC(=O)CC[C@H](NC(=O)CCCCCCCCCCCCCCCCC(=O)O)C(=O)O)C(=O)O)C(=O)O)NC(=O)[C@H](CCC(=O)O)NC(=O)[C@H](CC(C)C)NC(=O)[C@H](Cc1ccc(O)cc1)NC(=O)[C@H](CCCCN)NC(=O)[C@H](CO)NC(=O)[C@@H](NC(=O)[C@H](CC(=O)O)NC(=O)[C@H](CO)NC(=O)[C@@H](NC(=O)[C@H](Cc1ccccc1)NC(=O)[C@@H](NC(=O)CNC(=O)[C@H](Cc1c[nH]cn1)NC(=O)C1(NC(=O)CCc2c[nH]cn2)CCC1)[C@@H](C)O)[C@@H](C)O)C(C)C)C(=O)N[C@@H](C)C(=O)N[C@@H](Cc1c[nH]c2ccccc12)C(=O)N[C@@H](CC(C)C)C(=O)N[C@@H](CC(C)C)C(=O)N[C@@H](CCCCN)C(=O)N[C@H](C(N)=O)[C@@H](C)O
# B5: N^ε23-[2-[2-[2-[[2-[2-[2-[[(4S)-4-carboxy-4-(17-carboxyheptadecanoylamino)butanoyl]amino]ethoxy]ethoxy]acetyl]amino]ethoxy]ethoxy]acetyl]-[Imp7,Aib8,His9,Tyr16, … (peptide)
# peptide: [Desaminohistidyl][Aib]HGTFTSDYSKYLEGK([AEEA-AEEA-γGlu-C18 diacid])AAREFIAWLLKT-NH2
# SMILES: CC[C@H](C)[C@H](NC(=O)[C@H](Cc1ccccc1)NC(=O)[C@H](CCC(=O)O)NC(=O)[C@H](CCCNC(=N)N)NC(=O)[C@H](C)NC(=O)[C@H](C)NC(=O)[C@H](CCCCNC(=O)COCCOCCNC(=O)COCCOCCNC(=O)CC[C@H](NC(=O)CCCCCCCCCCCCCCCCC(=O)O)C(=O)O)NC(=O)CNC(=O)[C@H](CCC(=O)O)NC(=O)[C@H](CC(C)C)NC(=O)[C@H](Cc1ccc(O)cc1)NC(=O)[C@H](CCCCN)NC(=O)[C@H](CO)NC(=O)[C@H](Cc1ccc(O)cc1)NC(=O)[C@H](CC(=O)O)NC(=O)[C@H](CO)NC(=O)[C@@H](NC(=O)[C@H](Cc1ccccc1)NC(=O)[C@@H](NC(=O)CNC(=O)[C@H](Cc1c[nH]cn1)NC(=O)C(C)(C)NC(=O)CCc1c[nH]cn1)[C@@H](C)O)[C@@H](C)O)C(=O)N[C@@H](C)C(=O)N[C@@H](Cc1c[nH]c2ccccc12)C(=O)N[C@@H](CC(C)C)C(=O)N[C@@H](CC(C)C)C(=O)N[C@@H](CCCCN)C(=O)N[C@H](C(N)=O)[C@@H](C)O
# B6: N^ε34-[2-[2-[2-[[2-[2-[2-[[(4S)-4-carboxy-4-[[(4S)-4-carboxy-4-[[(4S)-4-carboxy-4-(17-carboxyheptadecanoylamino)butanoyl]amino]butanoyl]amino]butanoyl]amino]eth … (peptide)
# peptide: [Desaminohistidyl][Aib]HGTFTSDVSKYLEEQAAREFIAWLLK([Ado-Ado-γGlu-γGlu-γGlu-C18 diacid])T
# notes: as for B1
# Biological target: T1, human glucagon receptor (human, UniProt P47871 26-477)
# T1 construct: whole, on cells; reporter assay on whole cells
# Assay: SPA displacement of [125I]-glucagon from human glucagon receptor BHK membranes
# Experimental: 1. For the receptor binding assay 50 μl of the assay buffer was added to each well of an assay plate. [0603] 2. Test compounds were serially diluted to give the following concentrations: 8×10EE-7 M, 8×10EE-8 M, 8×10EE-9 M, 8×10EE-10 M, 8×10EE-11 M, 8×10EE-12 M and 8×10EE-13 M. Twenty-five μl were added to appropriate wells in the assay plate. [0604] 3. Cell membrane aliquots were thawed and diluted to their working concentration. Fifty μl were added to each well in the assay plate. [0605] 4. WGA SPA beads were suspended in assay buffer at 20 mg/ml. The suspension was diluted to 10 mg/ml in assay buffer just prior to addition to the assay plate. Fifty μl were added to each well in the assay plate. [0606] 5. […] A 25 μl aliquot was reserved for measuring total counts/well. […] 6. The assay plate was incubated for 2 h at 25° C. [0608] 7. The assay plate was centrifuged for 10 min at 1500 rpm. [0609] 8. The assay plate was read in a Perkin Elmer TopCount NXT instrument.
# T1 sequence (P47871 26-477): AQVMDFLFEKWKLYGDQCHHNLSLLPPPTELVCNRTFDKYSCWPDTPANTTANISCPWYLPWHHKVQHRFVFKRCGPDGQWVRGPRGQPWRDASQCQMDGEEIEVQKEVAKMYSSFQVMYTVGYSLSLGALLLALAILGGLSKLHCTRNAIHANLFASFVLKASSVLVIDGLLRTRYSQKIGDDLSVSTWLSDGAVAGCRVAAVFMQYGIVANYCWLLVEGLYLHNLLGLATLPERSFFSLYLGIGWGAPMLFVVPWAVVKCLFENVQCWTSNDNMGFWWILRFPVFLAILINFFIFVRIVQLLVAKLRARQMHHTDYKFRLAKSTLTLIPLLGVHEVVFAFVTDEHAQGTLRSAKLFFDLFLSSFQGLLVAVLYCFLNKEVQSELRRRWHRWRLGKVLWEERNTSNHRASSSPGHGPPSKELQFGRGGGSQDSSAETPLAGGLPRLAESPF
row,Binder,IC50 [nM]
1,B1,18.8
2,[Desaminohistidyl][Aib]HGTFTSDVSKYLEEQAAREFIAWLLK([Gly-Ser-Glu-Gly-Ser-γGlu-γGlu-C18 diacid])T-NH2,3.2
3,B2,14.1
4,B3,80.2
5,B4,17.9
6,B5,51
7,[Desaminohistidyl][Aib]HGTFTSDLSKYLEEQAAREFIAWLLK([Ado-Ado-γGlu-γGlu-C18 diacid])T-NH2,5.1
8,[Desaminohistidyl][Aib]HGTFTSDVSKYLEEQAAREFIAWLIK([Ado-Ado-γGlu-γGlu-C18 diacid])T-NH2,11.8
9,B6,28.1
10,[Desaminohistidyl]AHGTFTSDVSKYLEGRAAREFIAWLLK([Ado-Ado-γGlu-γGlu-γGlu-C18 diacid])GGG,69.5
11,[Desaminohistidyl][Aib]HGTFTSDVSKYLEK([γGlu-γGlu-AEEA-AEEA-γGlu-C18 diacid])QAAREFIAWLLKGGG,56
12,[Desaminohistidyl][Aib]HGTFTSDYSKYLEEQAAREFIAWLLKGK([Gly-Ser-Glu-Gly-Ser-γGlu-γGlu-C18 diacid])G,31.1
13,[Desaminohistidyl]AHGTFTSDVSRYLEGRAAREFIAWLLK([Ado-Ado-γGlu-γGlu-γGlu-C18 diacid]),43.4

# Biological target: T2, human GLP-1 receptor (human, UniProt P43220 24-463)
# T2 construct: whole, on cells; reporter assay on whole cells
# Assay: SPA displacement of [125I]GLP-1(7-36)NH2 from hGLP-1R BHK membranes
# Experimental: The GLP-1 receptor binding of each derivatives were determined with competitive binding, displacing [¹²⁵I]GLP-1 bound to GLP-1 receptors expressed in cell membranes associated with wheat germ agglutinin (WGA) scintillation proximity assay (SPA) beads. Each derivative was added in a series of concentrations to isolated membranes comprising the human GLP-1 receptor and displacement of the labelled radioligand was monitored. The receptor binding was reported as the concentration at which half of the labelled ligand is displaced from the receptor, the IC⁵⁰ value.
# 1. For the receptor binding assay 50 μl of the assay buffer was added to each well of an assay plate. [0588] 2. Test compounds were serially diluted to give the following concentrations: 8×10EE-7 M, 8×10EE-8 M, 8×10EE-9 M, 8×10EE-10 M, 8×10EE-11 M, 8×10EE-12 M and 8×10EE-13 M. Twenty-five μl were added to appropriate wells in the assay plate. [0589] 3. Cell membrane aliquots were thawed and diluted to their working concentration. Fifty μl were added to each well in the assay plate. [0590] 4. WGA SPA beads were suspended in assay buffer at 20 mg/ml. The suspension was diluted to 10 mg/ml in assay buffer just prior to addition to the assay plate. Fifty μl were added to each well in the assay plate. [0591] 5. […] A 25 μl aliquot was reserved for measuring total counts/well. [0592] 6. The assay plate was incubated for 2 h at 30° C. [0593] 7. The assay plate was centrifuged for 10 min. [0594] 8. The assay plate was read in a Perkin Elmer TopCount NXT instrument.
row,Binder,IC50 [nM]
1,B1,6.9
2,[Desaminohistidyl][Aib]HGTFTSDVSKYLEEQAAREFIAWLLK([Gly-Ser-Glu-Gly-Ser-γGlu-γGlu-C18 diacid])T-NH2,0.4
3,B2,0.2
4,B3,1.9
5,B4,0.2
6,B5,13.1
7,[Desaminohistidyl][Aib]HGTFTSDLSKYLEEQAAREFIAWLLK([Ado-Ado-γGlu-γGlu-C18 diacid])T-NH2,1.1
8,[Desaminohistidyl][Aib]HGTFTSDVSKYLEEQAAREFIAWLIK([Ado-Ado-γGlu-γGlu-C18 diacid])T-NH2,0.2
9,B6,4.6
10,[Desaminohistidyl]AHGTFTSDVSKYLEGRAAREFIAWLLK([Ado-Ado-γGlu-γGlu-γGlu-C18 diacid])GGG,0.9
11,[Desaminohistidyl][Aib]HGTFTSDVSKYLEK([γGlu-γGlu-AEEA-AEEA-γGlu-C18 diacid])QAAREFIAWLLKGGG,0.5
12,[Desaminohistidyl][Aib]HGTFTSDYSKYLEEQAAREFIAWLLKGK([Gly-Ser-Glu-Gly-Ser-γGlu-γGlu-C18 diacid])G,3.2
13,[Desaminohistidyl]AHGTFTSDVSRYLEGRAAREFIAWLLK([Ado-Ado-γGlu-γGlu-γGlu-C18 diacid]),19

# Biological target: T2, human GLP-1 receptor
# Assay: cell-based or functional assay
row,Binder,"EC50 GLP-1R [pM], CRE luciferase reporter gene assay [pM]"
1,[Desaminohistidyl][Aib]HGTFTSDVSKYLEEQAAREFIAWLLK([Gly-Ser-Glu-Gly-Ser-γGlu-γGlu-C18 diacid])T-NH2,5
2,[Desaminohistidyl][Aib]HGTFTSDLSKYLEEQAAREFIAWLLK([Ado-Ado-γGlu-γGlu-C18 diacid])T-NH2,14.7
3,[Desaminohistidyl][Aib]HGTFTSDVSKYLEEQAAREFIAWLIK([Ado-Ado-γGlu-γGlu-C18 diacid])T-NH2,18.3

# Biological target: T1, human glucagon receptor
# Assay: cell-based or functional assay
row,Binder,"EC50 GlucagonR [pM], CRE luciferase reporter gene assay [pM]"
1,[Desaminohistidyl][Aib]HGTFTSDVSKYLEEQAAREFIAWLLK([Gly-Ser-Glu-Gly-Ser-γGlu-γGlu-C18 diacid])T-NH2,40.7
2,[Desaminohistidyl][Aib]HGTFTSDLSKYLEEQAAREFIAWLLK([Ado-Ado-γGlu-γGlu-C18 diacid])T-NH2,54.2
3,[Desaminohistidyl][Aib]HGTFTSDVSKYLEEQAAREFIAWLIK([Ado-Ado-γGlu-γGlu-C18 diacid])T-NH2,106
